This is an account of results in PMC8631645, “Avidity observed between a bivalent inhibitor and an enzyme monomer with a single active site” (PLoS ONE, 2021).

For one test, the target named is bovine trypsin (bovine). The test can be described thus: enzyme activity titration; pre-titrated bovine trypsin (9 uL, 30 uM) mixed with six dilutions of APPI monomer or dimer; residual activity on 100 uM L-BAPA, 100 mM Tris, 5 mM CaCl2, pH 8.0, 37 C; compared with concentration by absorbance at 280 nm. Conditions: both partners purified.
A further test has as its target T1, mesotrypsin (human, UniProt P35030 81-304).
T1 construct: also called recombinant human mesotrypsin
T1 sequence (looked up): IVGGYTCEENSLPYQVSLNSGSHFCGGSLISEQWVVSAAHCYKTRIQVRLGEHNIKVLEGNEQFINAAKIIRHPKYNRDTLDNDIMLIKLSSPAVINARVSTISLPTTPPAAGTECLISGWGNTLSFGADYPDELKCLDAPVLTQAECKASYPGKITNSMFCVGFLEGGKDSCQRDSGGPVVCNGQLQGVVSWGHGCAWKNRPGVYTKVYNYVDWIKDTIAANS
The test can be described thus: enzyme inhibition kinetics; mesotrypsin 0.25 nM, Z-GPR-pNA 5-250 uM, APPI monomer 0-400 nM or dimer inhibitor units 0-96 nM, 37 C, 100 mM Tris, 1 mM CaCl2, pH 8.0; global fit to the classic competitive inhibition equation; for the dimer an apparent constant of a single inhibitory unit. Conditions: both partners purified.

B1: dimeric amyloid precursor protein inhibitor (APPI homodimer, two APPI units in tandem joined by a GGGGSx3 linker) (other)
chain: EVCSEQAETGPCRAMISRWYFDVTEGKCAPFFYGGCGGNRNNFDTEEYCMAVCGSAMGGGGSGGGGSGGGGSEVCSEQAETGPCRAMISRWYFDVTEGKCAPFFYGGCGGNRNNFDTEEYCMAVCGSAM
modifications: three disulfides per Kunitz unit. Limits from the printed primers (text says 3L33 residues 4-55 = 290-341). GGGGSx3 linker kept between units. Possible restriction-site residues at the junction and …
On to B1, for which the stoichiometry N (in general, the number of molecules, sites or subunits per partner or assembly) with bovine trypsin stood at 2 trypsin per APPI dimer. For the same molecule, the Ki with mesotrypsin is 36.1 nM.
